Data reported in patent publication US20260234285A1 (University of Texas, published 2026).
Numbering of substitutions follows the chain as printed. Blank lines part the entries; values can stand above or below the binder they belong to.

Tests used:
[1] = molecular target: T1, human PD-L1 protein (monomeric, soluble analyte) (human, UniProt Q9NZQ7 19-238); experiment: Octet, monomeric human ligand
T1 construct: Recombinant human PD-L1 protein used as analyte on Octet or Biacore; also called monomeric PD-L1; monomeric human ligand

[2] = molecular target: T2, human PD-L2 protein (monomeric, soluble analyte) (human, UniProt Q9BQ51 20-220); experiment: Octet, monomeric human ligand
T2 construct: Recombinant human PD-L2 protein used as analyte on Octet or Biacore; a soluble form would lack the transmembrane part; also called monomeric PD-L2; monomeric human ligand
T2 sequence: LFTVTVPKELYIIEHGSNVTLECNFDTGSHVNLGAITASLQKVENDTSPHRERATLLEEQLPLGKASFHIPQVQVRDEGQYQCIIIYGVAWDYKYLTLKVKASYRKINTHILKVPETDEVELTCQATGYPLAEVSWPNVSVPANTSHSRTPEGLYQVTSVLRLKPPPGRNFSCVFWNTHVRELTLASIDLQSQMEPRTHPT

[3] = molecular target: T3, human PD-L1 (CD274) expressed on cells (human, UniProt Q9NZQ7 19-290); experiment: cell-based or functional assay
[4] = molecular target: T4, human PD-L2 (PDCD1LG2) expressed on cells (human, UniProt Q9BQ51 20-273); experiment: cell-based or functional assay
T4 sequence: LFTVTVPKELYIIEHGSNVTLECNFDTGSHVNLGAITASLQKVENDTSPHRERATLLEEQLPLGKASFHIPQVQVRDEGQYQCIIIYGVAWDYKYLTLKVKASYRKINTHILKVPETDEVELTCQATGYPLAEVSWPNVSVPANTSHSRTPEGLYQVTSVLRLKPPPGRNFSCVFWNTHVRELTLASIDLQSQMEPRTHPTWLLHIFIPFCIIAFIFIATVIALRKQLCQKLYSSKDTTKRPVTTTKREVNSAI

Human PD-L1-Fc [5] = molecular target: T5, Human PD-L1-Fc (Homo sapiens, UniProt Q9NZQ7); experiment: Octet, IgG KD, avid format, human PD-L1-Fc
T5 construct: Antigen in Octet IgG KD Human PD-L1-Fc (M) Avid

Human PD-L2-Fc [6] = molecular target: T6, Human PD-L2-Fc (Homo sapiens, UniProt Q9BQ51); experiment: Octet, IgG KD, avid format, human PD-L2-Fc
T6 construct: Antigen in Octet IgG KD Human PD-L2-Fc (M) Avid
T6 sequence (PD-L2-Fc fusion chain, looked up): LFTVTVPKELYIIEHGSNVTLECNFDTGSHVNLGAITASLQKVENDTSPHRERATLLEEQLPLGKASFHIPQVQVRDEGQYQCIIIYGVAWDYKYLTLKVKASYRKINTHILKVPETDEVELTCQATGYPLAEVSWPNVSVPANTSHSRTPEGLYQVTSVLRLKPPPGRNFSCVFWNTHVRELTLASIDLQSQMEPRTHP

[7] = molecular target: T1, human PD-L1 protein (monomeric, soluble …); experiment: Biacore, IgG KD, monovalent format, human PD-L1-His
[8] = molecular target: T2, human PD-L2 protein (monomeric, soluble …); experiment: Biacore, IgG KD, monovalent format, human PD-L2-His
Human INSR BioVendor = molecular target: T7, Human INSR BioVendor (Homo sapiens, UniProt P06213-2); experiment: Octet, IgG KD, monovalent format, human INSR BioVendor
T7 construct: recombinant soluble protein used in Octet, monovalent format; Antigen of the column Octet IgG KD Human INSR BioVendor (M) Monovalent

[9] = molecular target: T3, human PD-L1 (CD274) expressed on cells; experiment: flow cytometry on live transfected HEK293 cells, dose range 0-300 µg/mL
Description: (§1) Human HEK293 cells were transfected with expression vectors encoding ZsGreen1 only, or ZsGreen1 and CD274 (PD-L1), PDCD1LG2 (PD-L2), INSR isoform long, INSR Isoform short or CD20 (assay control). […] Cells were washed, and incubated with the same AF647 anti-human IgG Fc detection antibody as used in the cell microarray screens. Cells were again washed, and analyzed by flow cytometry using an Accuri flow cytometer (BD). A 7AAD live/dead dye was used to exclude dead cells in the analysis, and ZsGreen+ (transfected) cells were selected for analysis.
(§2) Interactions were then investigated by flow cytometry.

[10] = molecular target: T4, human PD-L2 (PDCD1LG2) expressed on …; experiment: as above
Description: as §1, §2

[11] = molecular target: T8, INSR isoform long, over-expressed on HEK293 cells (human, UniProt P06213 28-1382); experiment: as above
T8 construct: whole, on cells; Long isoform of the UniProt entry; also called INSR long isoform
Description: as §1, §2

Human PD-L1-Fc [12] = molecular target: T5, Human PD-L1-Fc; experiment: Octet, column hPD-L1 dimer; unit Molar from the legend
Human PD-L2-Fc [13] = molecular target: T6, Human PD-L2-Fc; experiment: Octet, column hPD-L2 dimer; unit Molar from the legend
mPD-L1 dimer = molecular target: T9, mPD-L1 dimer (Mus musculus, UniProt Q9EP73); experiment: Octet, column mPD-L1 dimer; unit Molar from the legend
T9 construct: also called mouse PD-L1 protein
Description: (§3) Antibody Characterization. Antibody candidates generated from yeast-surface display screening were tested for the capacity to bind to PD-L1 or PD-L2.

mPD-L2 dimer = molecular target: T10, mPD-L2 dimer (Mus musculus, UniProt Q9WUL5); experiment: Octet, column mPD-L2 dimer; unit Molar from the legend
T10 construct: also called mouse PD-L2 protein
T10 sequence (PD-L2 chain, looked up): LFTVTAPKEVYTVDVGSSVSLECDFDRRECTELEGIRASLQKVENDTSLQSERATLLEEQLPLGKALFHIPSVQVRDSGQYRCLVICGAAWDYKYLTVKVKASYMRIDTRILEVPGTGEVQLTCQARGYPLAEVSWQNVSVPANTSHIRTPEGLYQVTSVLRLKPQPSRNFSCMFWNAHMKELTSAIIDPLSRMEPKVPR
Description: as §3

[14] = molecular target: T1, human PD-L1 protein (monomeric, soluble …); experiment: Octet, IgG KD, monovalent format, human PD-L1-His
[15] = molecular target: T2, human PD-L2 protein (monomeric, soluble …); experiment: Octet, IgG KD, monovalent format, human PD-L2-His

T1 sequence (Q9NZQ7 19-238 limits assumed): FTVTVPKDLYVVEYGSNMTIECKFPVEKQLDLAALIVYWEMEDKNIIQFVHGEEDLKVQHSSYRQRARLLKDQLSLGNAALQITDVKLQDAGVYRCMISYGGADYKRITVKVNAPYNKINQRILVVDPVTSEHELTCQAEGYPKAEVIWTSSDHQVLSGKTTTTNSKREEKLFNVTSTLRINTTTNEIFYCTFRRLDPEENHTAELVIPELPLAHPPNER
T5 sequence (Q9NZQ7 19-239 limits assumed): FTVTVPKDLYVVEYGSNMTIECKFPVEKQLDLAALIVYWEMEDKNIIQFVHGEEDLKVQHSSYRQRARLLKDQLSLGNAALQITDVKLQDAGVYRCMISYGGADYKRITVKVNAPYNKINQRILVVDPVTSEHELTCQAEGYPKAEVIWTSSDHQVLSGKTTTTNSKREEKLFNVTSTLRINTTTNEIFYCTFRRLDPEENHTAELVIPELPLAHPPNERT
T3 sequence (Q9NZQ7 19-290 limits assumed): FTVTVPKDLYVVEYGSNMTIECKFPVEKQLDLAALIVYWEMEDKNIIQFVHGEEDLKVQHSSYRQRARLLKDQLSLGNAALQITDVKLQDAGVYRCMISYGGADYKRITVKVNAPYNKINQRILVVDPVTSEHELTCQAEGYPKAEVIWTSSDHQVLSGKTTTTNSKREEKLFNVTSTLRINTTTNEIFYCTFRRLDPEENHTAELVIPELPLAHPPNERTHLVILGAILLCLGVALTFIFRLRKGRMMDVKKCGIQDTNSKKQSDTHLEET
T9 sequence (Q9EP73 19-238 limits assumed): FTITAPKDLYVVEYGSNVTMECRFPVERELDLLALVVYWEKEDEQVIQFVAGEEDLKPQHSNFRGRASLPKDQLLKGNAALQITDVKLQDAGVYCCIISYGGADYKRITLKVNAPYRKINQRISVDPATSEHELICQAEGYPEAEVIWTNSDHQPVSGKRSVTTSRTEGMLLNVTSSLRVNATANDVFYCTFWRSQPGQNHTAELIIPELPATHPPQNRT

B1: ADI-38002 (antibody, human IgG1, kappa, V domains shown)
VH: QVQLQQWGAGLLKPSETLSLTCAVYGGSLSGYPWSWIRQPPGKGLEWIGETDVSGWTDYNPSLKSRVTISVDTSKNQFSLKLSSVTAADTAVYYCARDGRRMGTPSFDIWGQGTMVTVSS
VL: DIQMTQSPSSVSASVGDRVTITCRASQDINSFLAWYQQKPGKAPKLLIYAASSLNSGVPSRFSGSGSGTDFTLTISSLQPEDFATYYCQKSVYFPPTFGGGTKVEIKR
notes: Human IgG1 (GASDIE); Some in vivo work used a mouse IgG2a form; also called Ab-38002; test antibody 38002
Kd [1]: 7.62 nM | Kd [2]: 1.9 nM | EC50 (read off the curve) [3]: ~1 nM | EC50 (read off the curve) [4]: ~0.5 nM | Kd (Human PD-L1-Fc [5]): 1.28 nM | Kd (Human PD-L2-Fc [6]): 0.601 nM | Kd [7]: 3.76 nM | Kd [8]: 0.727 nM | binding result (Human INSR BioVendor): no binding | EC50 [9]: 0.03 µg/mL | EC50 [10]: 0.1 µg/mL | EC50 [11]: 145 µg/mL | Kd (Human PD-L1-Fc [12]): 1.28 nM | Kd (Human PD-L2-Fc [13]): 0.601 nM | Kd (mPD-L1 dimer): 3.2 nM | Kd (mPD-L2 dimer): 0.7 nM

B3: ADI-37464 (antibody, V domains shown)
VH: B1 VH
VL: B1 VL with D28G, S91A
Kd (Human PD-L1-Fc [5]): 1.52 nM | Kd (Human PD-L2-Fc [6]): 0.426 nM | Kd [14]: 6.23 nM | Kd [15]: 1.6 nM | Kd [7]: 2.76 nM | Kd [8]: 0.508 nM

Further binders by falling Kd (Human PD-L1-Fc [5]), results first:

Kd (Human PD-L1-Fc [5]): 1.27 nM | Kd (Human PD-L2-Fc [6]): 0.377 nM | Kd [14]: 14.2 nM | Kd [15]: 1.02 nM | Kd [7]: 8.09 nM | Kd [8]: 0.175 nM
B4: ADI-38003 (antibody, V domains shown)
VH: B1 VH
VL: B1 VL with Q27K, D28G, N30S, S91A

Kd (Human PD-L1-Fc [5]): 1.22 nM | Kd (Human PD-L2-Fc [6]): 0.597 nM | Kd [14]: 20 nM | Kd [15]: 2.84 nM | Kd [7]: 37.7 nM | Kd [8]: 1.24 nM
B2: ADI-38004 (antibody, V domains shown)
VH: B1 VH
VL: B1 VL with D28G, N30S, K90S, S91A
